Target: CCANdeltaCT (CENP-LN, CENP-HIKM, CENP-OPQUR; no CENP-C, no CENP-TWSX) (Homo sapiens, UniProt Q8N0S6;Q96H22;Q9H3R5;Q92674;Q9BS16;Q9NSP4;Q9BU64;Q6IPU0;Q7L2Z9;Q71F23;Q13352 …)
Test: EMSA; 300 mM NaCl; EMSA: 20 mM HEPES-Na pH 7.5, 300 mM NaCl, 0.5 mM TCEP, 10 min on ice, 1% agarose in 0.5x TAE; SEC: Superose 6 (analytical SEC buffer not given in the material)
Details: protein: recombinant; tags: His6 C-term on CENP-N and CENP-Q; copies: 1;1;1;1;1;1;1;1;1;1;1; blunt

B1: 147 bp DNA (Widom 601) (dsDNA)
DNA 1: ATCGAGAATCCCGGTGCCGAGGCCGCTCAATTGGTCGTAGACAGCTCTAGCACCGCTTAAACGCACGTACGCGCTGTCCCCCGCGTTTTAACCGCCAAGGGGATTACTCCCTAGTCTCCAGGCACGTGTCACATATATACATCCGAT
DNA 2: ATCGGATGTATATATGTGACACGTGCCTGGAGACTAGGGAGTAATCCCCTTGGCGGTTAAAACGCGGGGGACAGCGCGTACGTGCGTTTAAGCGGTGCTAGAGCTGTCTACGACCAATTGAGCGGCCTCGGCACCGGGATTCTCGAT
  binding result: binds

From PMC9463443
